Test results: patent publication US20090188010A1

How the values were obtained:
[1] = biological target: NaPI-insensitive chymotrypsin from H. punctigera (HpCh5), native enzyme from the larval gut (Helicoverpa punctigera); experiment: cell-based or functional assay
[2] = biological target: chymotrypsins in unfractionated gut extracts from H. punctigera larvae; experiment: cell-based or functional assay

NaPI-insensitive chymotrypsin from H. punctigera (HpCh5), native enzyme from the larval gut (Helicoverpa punctigera), sequence (chain, as listed by the source limits assumed): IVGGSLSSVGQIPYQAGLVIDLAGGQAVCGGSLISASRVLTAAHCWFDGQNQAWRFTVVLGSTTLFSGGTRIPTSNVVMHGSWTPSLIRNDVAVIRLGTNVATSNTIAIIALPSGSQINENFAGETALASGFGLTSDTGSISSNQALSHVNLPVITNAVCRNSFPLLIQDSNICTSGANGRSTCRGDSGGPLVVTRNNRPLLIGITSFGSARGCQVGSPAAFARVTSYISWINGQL

Row | Binder | inhibition of SA2PFpNA or SA2PLpNA hydrolysis at 300 nM inhibitor [1] | inhibition of SA2PMpNA hydrolysis [1] | inhibition of gut chymotrypsin activity, unfractionated gut extract (FIG. 3) [2]
1 | StPotIA, bacterially expressed with N-terminal 6xHis-tag (protein, not shown: small tags and cut ends) KESESESWCKGKQFWPELIGVPTKLAKEIIEKENPSINDVPIILNGTPVPADFRCNRVRLFDNILGDVVQIPRVA | > 75% | 40% | 
2 | StPotIB, bacterially expressed with N-terminal 6xHis-tag (protein, not shown: small tags and cut ends) KEFECNGKQFWPELIGVPTKLAKEIIEKENSLINNVQILLNGSPVTMDYRCNRVRLFDNILGSVVQIPRVA | > 75% | 40% | 
3 | recombinant C1 inhibitor with N-terminal hexahistidine tag, expressed in E. coli (protein, not shown: small tags and cut ends) DRICTNCCAGTKGCKYFSDDGTFVCEGESDPRNPKACTLNCDPRIAYGVCPRSEEKKN |  |  | 70%
